Values belong to the binder of their own block, whether it stands above or below them.
Biological target: T1, 人TIGIT (TIGIT-Jurkat细胞表面) (human, UniProt Q495A1 22-244)
T1 construct: whole, on cells
T1 sequence (looked up): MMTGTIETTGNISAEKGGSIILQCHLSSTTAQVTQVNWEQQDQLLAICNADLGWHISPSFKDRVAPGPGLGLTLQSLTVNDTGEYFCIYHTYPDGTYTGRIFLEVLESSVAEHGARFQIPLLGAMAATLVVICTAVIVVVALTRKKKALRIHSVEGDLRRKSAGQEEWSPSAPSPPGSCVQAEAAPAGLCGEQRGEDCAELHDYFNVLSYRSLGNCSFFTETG
Experiment: flow cytometry competition: blocking of PVR-Fc-bio (12.5 nM) binding to TIGIT-Jurkat cells

IC50: 2.82 nM
B1: 参照抗体Tiragolumab (antibody, V domains shown)
VH: EVQLQQSGPGLVKPSQTLSLTCAISGDSVSSNSAAWNWIRQSPSRGLEWLGKTYYRFKWYSDYAVSVKGRITINPDTSKNQFSLQLNSVTPEDTAVFYCTRESTTYDLLAGPFDYWGQGTLVTVSS
VL: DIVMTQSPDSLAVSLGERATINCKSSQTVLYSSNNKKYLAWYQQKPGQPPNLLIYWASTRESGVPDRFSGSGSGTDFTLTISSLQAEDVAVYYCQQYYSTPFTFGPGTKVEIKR

IC50: 0.441 nM
B2: 抗体h10D8OF (antibody, human IgG1, kappa, V domains shown)
VH: QVQLVESGGGVVQPGRSLRLDCKASGFTFSSYGMSWVRQAPGKGLELVATINSNGGSTYYPDSVKGRFTISRDNSKNTLFLQMNSLRAEDTAVYYCARLGTGTLGFAYWGQGTLVTVSS
VL: EIVMTQSPATLSLSPGERATLSCKASQDVKTAVSWYQQKPGQAPRLLIYWASTRATGIPARFSGSGSGTDYTLTISSLEPEDFAVYYCQQHYSTPWTFGQGTKVEIKR
notes: also called 抗TIGIT抗体

IC50: 0.742 nM
B3: 抗体h10D8OFKF (antibody, human IgG1, kappa, V domains shown)
VH: B2 VH
VL: B2 VL
notes: also called 抗TIGIT抗体
